The results in this text go back to the supplement of paper PMC10567573.

± gives the standard deviation.

The data set can be described thus: protein stability index of a GFP-peptide fusion (GPS, HEK-293T) (PSI 1-6); higher = more stable.
The mark [1] stands for this setting: treatment: DMSO, c terminus: a fixed tail appended.
[2] abbreviates: treatment: MLN4924 1 uM, 8 h, c terminus: a fixed tail appended.
Where [3] appears, read: treatment: DMSO, c terminus: native.
The mark [4] stands for this setting: treatment: MLN4924 1 uM, 8 h, c terminus: native.
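Also: 24-mer peptide tiles fused after GFP, lentivirally expressed, FACS-sorted into six equal bins by GFP/DsRed ratio, decoded by Illumina sequencing, PSI is the read-weighted mean bin number.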

For the sequence CPECYPDNPANRSLVLPWSFPLEW [TOR1AIP2], the protein stability index is, setting by setting: under setting [1], 2.5 ± 0.28; under setting [2], 2.77 ± 0.24.
The corresponding values for CQRSRYRDSLTQPDEEPMHYGNIM [RSPH3] are 3.37 ± 0.39 and 3.45 ± 0.3.
On the same counts, the results for CRDLVDEAKNYLLLPQERPLMQGP [KLHL20] are 2.65 ± 0.33 and 2.75 ± 0.12.
On the same counts, the results for CRSKTLGYQHVDLQNFSSSWSDGM [SMTNL2] are 2.47 ± 0.079 and 2.41 ± 0.27.
On to CSRFFIDFPDILEQQRKLETYLQN [TENT5C], for which the protein stability index under setting [1] is 2.17 ± 0.22 and the protein stability index under setting [2] stood at 2.24 ± 0.12.
In the case of CSRPSGSSSSSGVLMVGPNFRVGK [CSNK1G1], the protein stability index by setting is: under setting [1], 3.63 ± 0.47; under setting [2], 3.74 ± 0.62.
The corresponding values for CTAKCGERSVVTRDIRCSEDEKLC [ADAMTSL2] are 4.63 ± 0.38 and 4.61 ± 0.18.
On the same counts, the results for CTDCGKSFNHNAHLTVHKRIHTGE [ZNF8] are 4.54 ± 0.21 and 4.41 ± 0.21.
On to CTSVNTIYDNAVQGLRRHEILQWV [LRRC59], for which the protein stability index is, setting by setting: under setting [1], 2.3 ± 0.17; under setting [2], 2.13 ± 0.2.
The corresponding values for CTVLRDARIRSHSWLESCIVGWRC [GMPPB] are 2.42 ± 0.39 and 1.93 ± 0.43.
With CVLVDTGRPIPGTSTRYEQPKCDN [SMOC2], the protein stability index is, setting by setting: under setting [1], 3.79 ± 0.31; under setting [2], 3.77 ± 0.22.
On the same counts, the results for CVSIPDVVGWFVLFYKPGIVLLLA [GULP1] are 2.63 ± 0.55 and 3.09 ± 0.066.
The corresponding values for CWKMLSPGFDSSVYSDLCEAAEAV [ADAMTSL2] are 2.69 ± 0.34 and 3.16 ± 0.71.
As to DAALLEMENNHTVAITILQDDHDH [MTUS2], the protein stability index was 4.98 ± 0.21 under setting [1] and 4.92 ± 0.065 under setting [2].
For the sequence DAGGWVLIDRSGRHFGTILNYLRD [KCTD13], the protein stability index runs as follows: under setting [1], 2.33 ± 0.25; under setting [2], 2.08 ± 0.42.
As for DCPMDSSSSRDTDWVVVKEPVIKV [PI4K2A], the protein stability index is 3.6 ± 0.4 under setting [1] and 4 ± 0.53 under setting [2].
The corresponding values for DDGYSTKDSYSSRDYPSSRDTRDY [RBMX] are 4.9 ± 0.25 and 4.77 ± 0.081.
The corresponding values for DEDDEDEDEDEDEDEDEDKEEEEE [TAF7L] are 5.46 ± 0.4 and 5.51 ± 0.1.
For the sequence DEEKKARRGRSPKGEFKDEEETVT [CLINT1], the protein stability index by setting is: under setting [1], 5.43 ± 0.28; under setting [2], 5.57 ± 0.14.
The corresponding values for DEKDRIITAFYNEARARARANRGI [DNAJC4] are 4 ± 0.35 and 4.16 ± 0.17.
The corresponding values for DEKQRDPRIEASKVLLCHGELRSK [NET1] are 4.42 ± 0.21 and 4.63 ± 0.22.
On the same counts, the results for DETLRSGELLNMIVAVIDSAQLQE [INTS3] are 2.84 ± 0.18 and 3.06 ± 0.39.
As for DFGLAARLEPLEHRRRTICGTPNY [PLK2], the protein stability index is, setting by setting: under setting [1], 3.17 ± 0.28; under setting [2], 3.13 ± 0.21.
The corresponding values for DFKDFYPAIADLFAESLQCKVDCE [P3H4] are 2.84 ± 0.4 and 3.16 ± 0.62.
The sequence DFLAEKESLTEDEATQFLKQILDG [DAPK3] had a protein stability index under setting [1] of 4.4 ± 0.55.
In the case of DFMELGRSIPDTQLEQVIESQKAN [ACSBG2], the protein stability index by setting is: under setting [1], 5.16 ± 0.26; under setting [2], 4.99 ± 0.26.
On the same counts, the results for DFRVKYETELAMRQSVENDIHGLR [KRT18] are 3.56 ± 0.2 and 3.68 ± 0.1.
As to DFYEAMDDYTSAIEVQPNFEVPYY [TTC32], the protein stability index is, setting by setting: under setting [1], 2.64 ± 0.23; under setting [2], 2.84 ± 0.3.
For DGGALLGVLQYRGAELHLQPLEGG [ADAMTS4], the protein stability index reads like this: under setting [1], 2.06 ± 0.94; under setting [2], 2.52 ± 0.73.
On to DGLDGISVGSYLDTLADDVPGHQT [LURAP1L], for which the protein stability index reads like this: under setting [1], 5.12 ± 0.27; under setting [2], 4.86 ± 0.22.
The corresponding values for DGNKIFLCHCGKAFSHKSMRDRHV [ZBTB22] are 2.39 ± 0.4 and 2.61 ± 0.56.
With DILEVKRLLDHQDNILSLINVNDL [WDR41], the protein stability index is, setting by setting: under setting [1], 2.24 ± 0.4; under setting [2], 2.22 ± 0.25.
On the same counts, the results for DILVLLGASLYAISNVCEEYIVKK [SLC35F2] are 3.41 ± 0.61 and 2.89 ± 0.47.
The corresponding values for DIRYLLGYVSQQGGQRSTPLIIAA [FEM1B] are 2.5 ± 0.41 and 2.62 ± 0.21.
The corresponding values for DLGEGKICFCCEEFQPAKCTDKEN [FAM189A2] are 4.24 ± 0.34 and 4.07 ± 0.085.
With DLKPENIMLLDKNVPNPRIKLIDF [DAPK3], the protein stability index runs as follows: under setting [1], 2.79 ± 0.084; under setting [2], 2.93 ± 0.21.
The corresponding values for DLMETTQYMNEGELRVLADTYDSV [HDAC6] are 2.69 ± 0.52 and 3.58 ± 0.51.
The corresponding values for DLVAMQWADAAGEAVPEGPDGGGP [ZSWIM9] are 4.99 ± 0.33 and 5.17 ± 0.12.
As for DLVPKQAIQVQEADEAGWGGSGG [DLX1], the protein stability index is 2.96 ± 0.75 under setting [3] and 3.09 ± 0.087 under setting [4].
DMTFEEEAQLLQLKVKCLNNLAAS [FKBP8] came in with a protein stability index under setting [1] of 3.42 ± 0.27 and a protein stability index under setting [2] of 3.54 ± 0.46.
The corresponding values for DMWSLGCILVEMHTGEPLFSGSNE [DYRK1B] are 1.97 ± 0.33 and 2.15 ± 0.23.
With DNAVQGLRRHEILQWVLQTDSQQ [LRRC59], the protein stability index was found to be 3.37 ± 0.2 under setting [3] and 3.44 ± 0.24 under setting [4].
As for DNIVNCNEFLCTLQKKLDNLQCLY [ZNF277], the protein stability index was determined as 2.36 ± 0.39 under setting [1] and 2.07 ± 0.43 under setting [2].
Regarding DPNTRPVGEKNCTGPPCDRQWTVS [ADAMTSL2], the protein stability index by setting is: under setting [1], 4.89 ± 0.15; under setting [2], 4.86 ± 0.32.
Consider DPSNRSFFSEIISSVSDVKFSHSG [PPP2R2C], for which the protein stability index came to 3.43 ± 0.25 under setting [1] and 3.44 ± 0.29 under setting [2].
The corresponding values for DQEGLQRITGLSPGRSALIVAVLC [SPNS1] are 2.31 ± 0.46 and 2.27 ± 0.35.
As to DQKVPYIFRDNQWVGFDDVESFKT [CHIT1], the protein stability index is, setting by setting: under setting [1], 3.67 ± 0.18; under setting [2], 3.53 ± 0.28.
On the same counts, the results for DRAPAEQVPRSPVIKISYSTPQGK [PWWP2B] are 4.44 ± 0.29 and 4.52 ± 0.3.
In the case of DRLQVFHKRAIMPYGVYKKQQKDP [ATE1], the protein stability index was determined as 3.17 ± 0.39 under setting [1] and 3.34 ± 0.22 under setting [2].
Sequence DRLRINRFAWPKVLKISYKRNNFY [EPB41L3] gave a protein stability index under setting [1] of 1.81 ± 0.57 and a protein stability index under setting [2] of 1.69 ± 0.4.
On the same counts, the results for DRTAIRSDTTHLVTLGGVLRQQLV [KLHL13] are 2.61 ± 0.28 and 2.73 ± 0.22.
The corresponding values for DRVQVERDGLAEDLAALKQRLEEE [PRPH] are 5.49 ± 0.16 and 5.17 ± 0.25.
The corresponding values for DSKSGGSGSESDHTTRSSLRGPRE [DVL3] are 5.31 ± 0.27 and 5.19 ± 0.22.
As to DSYCDALTRPEPVHEFCAGRECQP [ADAMTSL2], the protein stability index came to 4.86 ± 0.1 under setting [1] and 4.57 ± 0.29 under setting [2].
Consider DTCPEVGFFDVLGNDRRREWAALG [ACBD3], for which the protein stability index is, setting by setting: under setting [1], 3.09 ± 0.4; under setting [2], 3.76 ± 0.14.
The corresponding values for DVKKLEEAGFHTVEAVAYAPKKEL [RAD51] are 4.73 ± 0.2 and 4.91 ± 0.078.
With DVTSLSSQLPDTPNSMVPSPVET [ISL2], the protein stability index came out at 4.24 ± 0.1 under setting [3] and 4.39 ± 0.34 under setting [4].
Take DYCKGGYHPVKIGDLFNGRYHVIR [SRPK2]: the protein stability index under setting [1] was 1.99 ± 0.32 and the protein stability index under setting [2] is 2.23 ± 0.25.
On the same counts, the results for DYLSGVLILASELSRLSVNSVTAG [TSN] are 3.54 ± 0.61 and 2.68 ± 0.4.
On the same counts, the results for EADGSTNNGIFQINSRRWCSNLTP [SPACA3] are 3.43 ± 0.33 and 3.66 ± 0.32.
On the same counts, the results for EAKNYLLLPQERPLMQGPRTRPRK [KLHL20] are 4.25 ± 0.097 and 4.17 ± 0.058.
In the case of EAMFCDFPKINHGILYDEEKYKPF [CFHR2], the protein stability index runs as follows: under setting [1], 2.49 ± 0.34; under setting [2], 2.81 ± 0.26.
On the same counts, the results for EAVAGAEGREAPALVAAGGAPEDD [DENND6A] are 5.63 ± 0.16 and 5.74 ± 0.12.
For EAYIAKQKRLKSKLLDHDNVKYLK [GDAP1], the protein stability index reads like this: under setting [1], 3.15 ± 0.32; under setting [2], 3.45 ± 0.55.
The corresponding values for ECGKAFSRSSILVQHQRVHTGEKP [ZNF24] are 3.78 ± 0.3 and 3.96 ± 0.14.
On the same counts, the results for ECLPENLGGYVKIDLATWNFQFLP [PTPN9] are 2.36 ± 0.33 and 2.21 ± 0.38.
On to EDAVASADFSSMLSEEEKEELKAE [TPD52L1], for which the protein stability index was 5.59 ± 0.3 under setting [1] and 5.54 ± 0.63 under setting [2].
The corresponding values for EDGMQCLQLKETLATQEPTDNQVR [DLC1] are 5.35 ± 0.13 and 5.5 ± 0.092.
Consider EECKDRERPMYGRDSAYQSITHYR [EMD], for which the protein stability index runs as follows: under setting [1], 4.18 ± 0.43; under setting [2], 4.13 ± 0.14.
As to EEEEGTRSPTLEPPRGRSEAPDSL [SMG5], the protein stability index runs as follows: under setting [1], 5.44 ± 0.14; under setting [2], 5.68 ± 0.25.
The corresponding values for EEGILVAVGQDCYTRIWSLHDARL [DCAF4] are 2.26 ± 0.3 and 2.09 ± 0.31.
On to EEQSDQSFSSLEPDNEQLMEEVIS [IQUB], for which the protein stability index was 5.34 ± 0.27 under setting [1] and 5.61 ± 0.18 under setting [2].
